Assay results as given in US20020064528A1 (published 2002).
Each block holds one binder with its values, some of them ahead of it.

How the values were obtained:
[1] = biological target: KDR expressed on the surface of HUVEC (human, UniProt P35968 20-1356); test: cell-based or functional assay
[2] = biological target: T1, soluble fusion protein KDR-AP (human, UniProt P35968 20-764); test: direct binding ELISA on KDR-coated plate, detected by anti-E tag antibody-HRP
T1 construct: extracellular domain; Expressed in NIH 3T3 cells; also called KDR-alkaline phosphatase fusion protein; immobilized KDR; not shown: human placental alkaline phosphatase (AP) of the vector AP-Tag
T1 sequence (P35968 20-764): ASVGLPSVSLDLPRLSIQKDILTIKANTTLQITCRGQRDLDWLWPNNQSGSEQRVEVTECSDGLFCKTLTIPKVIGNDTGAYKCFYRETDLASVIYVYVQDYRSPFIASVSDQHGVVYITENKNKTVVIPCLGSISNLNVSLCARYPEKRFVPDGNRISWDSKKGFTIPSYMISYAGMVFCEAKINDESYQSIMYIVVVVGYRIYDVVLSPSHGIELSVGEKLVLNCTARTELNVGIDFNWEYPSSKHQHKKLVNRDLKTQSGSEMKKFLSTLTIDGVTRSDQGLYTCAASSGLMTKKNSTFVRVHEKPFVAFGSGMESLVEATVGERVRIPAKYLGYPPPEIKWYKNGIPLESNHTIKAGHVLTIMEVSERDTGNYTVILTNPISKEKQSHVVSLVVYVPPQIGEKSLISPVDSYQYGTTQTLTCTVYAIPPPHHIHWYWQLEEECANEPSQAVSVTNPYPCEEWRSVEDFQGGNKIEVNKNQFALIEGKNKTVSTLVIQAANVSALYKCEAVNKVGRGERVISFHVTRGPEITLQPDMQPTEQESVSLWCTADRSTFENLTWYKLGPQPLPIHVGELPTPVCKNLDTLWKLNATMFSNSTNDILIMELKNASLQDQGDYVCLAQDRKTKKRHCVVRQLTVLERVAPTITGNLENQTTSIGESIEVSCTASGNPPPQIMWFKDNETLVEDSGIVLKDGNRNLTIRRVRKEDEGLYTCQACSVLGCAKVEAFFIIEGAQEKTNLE

[3] = biological target: T1, soluble fusion protein KDR-AP; test: BIAcore, KDR-AP immobilized (Table 2)
Method: Sensorgrams were obtained at each concentration and were evaluated using a program, BIA Evaluation 2.0, to determine the rate constants kon and koff. Kd was calculated as the ratio of rate constants koff/kon.
*All rates are determined by surface plasmon resonance using BIAcore system and are mean of at least three separate determinations.

Sequence of KDR expressed on the surface of HUVEC (P35968 20-1356): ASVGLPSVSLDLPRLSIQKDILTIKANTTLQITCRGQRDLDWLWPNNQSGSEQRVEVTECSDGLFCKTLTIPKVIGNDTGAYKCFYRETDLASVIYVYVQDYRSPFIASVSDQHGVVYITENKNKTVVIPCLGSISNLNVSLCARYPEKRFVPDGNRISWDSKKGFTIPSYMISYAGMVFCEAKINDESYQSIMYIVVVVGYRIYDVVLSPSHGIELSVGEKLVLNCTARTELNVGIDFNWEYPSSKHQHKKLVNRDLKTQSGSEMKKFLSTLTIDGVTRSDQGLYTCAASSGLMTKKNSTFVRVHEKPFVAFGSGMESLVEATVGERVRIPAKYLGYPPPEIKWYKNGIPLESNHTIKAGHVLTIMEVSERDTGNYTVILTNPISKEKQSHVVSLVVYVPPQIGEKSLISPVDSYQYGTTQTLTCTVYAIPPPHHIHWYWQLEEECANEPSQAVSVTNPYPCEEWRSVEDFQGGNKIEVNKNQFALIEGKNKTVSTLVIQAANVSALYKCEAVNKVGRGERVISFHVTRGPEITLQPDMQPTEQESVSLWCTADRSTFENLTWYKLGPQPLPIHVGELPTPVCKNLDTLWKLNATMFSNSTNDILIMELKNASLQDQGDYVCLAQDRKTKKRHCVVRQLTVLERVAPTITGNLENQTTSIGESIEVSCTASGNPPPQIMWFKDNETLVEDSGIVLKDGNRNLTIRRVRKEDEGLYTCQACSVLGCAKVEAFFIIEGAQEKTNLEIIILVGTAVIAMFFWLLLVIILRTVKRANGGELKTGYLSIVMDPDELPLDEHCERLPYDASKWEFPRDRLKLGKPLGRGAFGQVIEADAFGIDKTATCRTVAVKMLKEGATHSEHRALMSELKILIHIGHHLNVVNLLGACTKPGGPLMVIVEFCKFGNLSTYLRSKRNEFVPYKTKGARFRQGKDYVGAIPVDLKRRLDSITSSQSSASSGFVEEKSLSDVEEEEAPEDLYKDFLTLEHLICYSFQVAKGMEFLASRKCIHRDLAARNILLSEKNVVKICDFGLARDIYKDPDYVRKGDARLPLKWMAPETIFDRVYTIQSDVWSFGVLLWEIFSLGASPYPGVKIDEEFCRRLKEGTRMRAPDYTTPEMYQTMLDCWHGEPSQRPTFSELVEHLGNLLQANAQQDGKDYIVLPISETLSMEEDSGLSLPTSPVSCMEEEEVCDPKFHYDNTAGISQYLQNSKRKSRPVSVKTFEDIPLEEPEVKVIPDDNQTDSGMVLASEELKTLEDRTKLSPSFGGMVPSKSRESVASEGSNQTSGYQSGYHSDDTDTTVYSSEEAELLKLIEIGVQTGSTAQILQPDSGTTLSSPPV

EC50, antibody concentration that inhibited 50% of VEGF-stimulated mitogenesis of HUVEC ([3H]-TdR incorporation) [1]: ~5 nM
EC50 (read off the curve) [2]: ~0.8 nM
B1: scFv p1C11 (scFv)
chain: QVKLQQSGAELVGSGASVKLSCTTSGFNIKDFYMHWVKQRPEQGLEWIGWIDPENGDSDYAPKFQGKATMTADSSSNTAYLQLSSLTSEDTAVYYCNAYYGDYEGYWGQGTTVTVSSGGGGSGGGGSGGGGSDIELTQSPAIMSASPGEKVTITCSASSSVSYMHWFQQKPGTSPKLWIYSTSNLASGVPARFSGSGSGTSYSLTISRMEAEDAATYYCQQRSSYPFTFGSGTKLEIK

fold higher affinity than the parent scFv [3]: ~2.5 fold
B2: chimeric anti-KDR antibody c-p1C11 (antibody, V domains shown)
VH: QVKLQQSGAELVGSGASVKLSCTTSGFNIKDFYMHWVKQRPEQGLEWIGWIDPENGDSDYAPKFQGKATMTADSSSNTAYLQLSSLTSEDTAVYYCNAYYGDYEGYWGQGTTVTVSS
VL: DIELTQSPAIMSASPGEKVTITCSASSSVSYMHWFQQKPGTSPKLWIYSTSNLASGVPARFSGSGSGTSYSLTISRMEAEDAATYYCQQRSSYPFTFGSGTKLEIK
notes: Bivalent chimeric IgG1/kappa with the mouse variable domains of p1C11; expressed in COS cells and purified on Protein G. The leader peptide added for secretion is not part of the mature protein; also called Chimeric-p1C11; c-p1C11 IgG
